Common to all, as to assay: two-hybrid library CCNG1;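 note: natural log of median RNA to DNA barcode read ratio; higher means stronger binding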
For assay [1], the target named is T1, 4H2667-bN.
T1 chain: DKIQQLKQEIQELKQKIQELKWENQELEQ

The target in assay [2] is T2, 4H1387-bN.
T2 chain: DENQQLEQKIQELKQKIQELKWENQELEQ

For assay [3], the target named is T3, 4H883-bN.
T3 chain: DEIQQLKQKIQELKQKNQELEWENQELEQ

Assay [4] has as its target T4, 4H3189-bN.
T4 chain: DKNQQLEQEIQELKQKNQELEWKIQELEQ

For assay [5], the target named is T5, 4H4001-bN.
T5 chain: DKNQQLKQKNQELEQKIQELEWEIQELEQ

For assay [6], the target named is T6, 4H3592-bN.
T6 chain: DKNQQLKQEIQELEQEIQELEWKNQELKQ

The target in assay [7] is T7, 4H462-bN.
T7 chain: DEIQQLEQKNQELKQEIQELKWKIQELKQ

Assay [8] addresses T8, 4H1369-bN.
T8 chain: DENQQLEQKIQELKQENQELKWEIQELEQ

Assay [9] addresses T9, 4H1845-bN.
T9 chain: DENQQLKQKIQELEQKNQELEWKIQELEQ

For assay [10], the target named is T10, 4H3601-bN.
T10 chain: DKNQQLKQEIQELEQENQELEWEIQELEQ

For assay [11], the target named is T11, 4H4038-bN.
T11 chain: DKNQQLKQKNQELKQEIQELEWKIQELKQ

For assay [12], the target named is T12, 4H918-bN.
T12 chain: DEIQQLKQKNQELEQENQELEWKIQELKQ

The target of assay [13] is T13, 4H953-bN.
T13 chain: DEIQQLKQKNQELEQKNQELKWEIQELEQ

Assay [14] concerns the target T14, 4H1406-bN.
T14 chain: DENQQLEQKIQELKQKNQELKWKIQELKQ

In assay [15] the target is T15, 4H607-bN.
T15 chain: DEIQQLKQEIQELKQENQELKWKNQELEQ

The target of assay [16] is T16, 4H967-bN.
T16 chain: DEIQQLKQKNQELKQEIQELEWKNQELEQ

Assay [17] deals with T17, 4H2576-bN.
T17 chain: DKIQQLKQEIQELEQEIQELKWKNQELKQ

The target of assay [18] is T18, 4H3843-bN.
T18 chain: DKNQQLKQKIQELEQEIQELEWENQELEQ

Assay [19] addresses T19, 4H1328-bN.
T19 chain: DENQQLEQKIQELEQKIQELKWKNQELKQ

The target in assay [20] is T20, 4H72-bN.
T20 chain: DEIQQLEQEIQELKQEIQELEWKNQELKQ

Assay [21] has as its target T21, 4H568-bN.
T21 chain: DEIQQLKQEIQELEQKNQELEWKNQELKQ

The target of assay [22] is T22, 4H3782-bN.
T22 chain: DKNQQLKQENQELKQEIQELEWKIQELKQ

Assay [23] has as its target T23, 4H3606-bN.
T23 chain: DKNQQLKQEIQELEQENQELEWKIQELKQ

Assay [24] deals with T24, 4H331-bN.
T24 chain: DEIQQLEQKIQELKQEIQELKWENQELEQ

Assay [25] deals with T25, 4H3907-bN.
T25 chain: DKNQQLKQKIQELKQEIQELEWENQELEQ

Assay [26] addresses T26, 4H797-bN.
T26 chain: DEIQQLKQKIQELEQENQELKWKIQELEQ

Assay [27] has as its target T27, 4H2697-bN.
T27 chain: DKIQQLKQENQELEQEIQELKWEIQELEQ

Assay [28] has as its target T28, 4H687-bN.
T28 chain: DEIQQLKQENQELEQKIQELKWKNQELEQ

Assay [29] concerns the target T29, 4H370-bN.
T29 chain: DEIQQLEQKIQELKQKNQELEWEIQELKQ

In assay [30] the target is T30, 4H1193-bN.
T30 chain: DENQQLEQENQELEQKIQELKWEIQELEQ

The target of assay [31] is T31, 4H1446-bN.
T31 chain: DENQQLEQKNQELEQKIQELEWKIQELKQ

The target in assay [32] is T32, 4H2610-bN.
T32 chain: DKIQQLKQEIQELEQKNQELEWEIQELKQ

Assay [33] addresses T33, P4bH1.
T33 chain: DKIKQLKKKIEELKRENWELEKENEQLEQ

Assay [34] addresses T34, P8bH1.
T34 chain: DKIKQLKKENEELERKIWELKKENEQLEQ

Assay [35] deals with T35, P7bH1.
T35 chain: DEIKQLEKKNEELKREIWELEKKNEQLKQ

The target in assay [36] is T36, P12bH1.
T36 chain: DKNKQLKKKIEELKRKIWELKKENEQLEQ

Assay [37] deals with T37, P2bH1.
T37 chain: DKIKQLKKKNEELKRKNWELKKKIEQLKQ

The target in assay [38] is T38, P9bH1.
T38 chain: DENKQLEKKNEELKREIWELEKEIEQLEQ

In assay [39] the target is T39, P6bH1.
T39 chain: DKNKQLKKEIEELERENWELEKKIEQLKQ

The target in assay [40] is T40, P3bH1.
T40 chain: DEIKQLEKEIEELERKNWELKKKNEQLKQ

Assay [41] has as its target T41, P5bH1.
T41 chain: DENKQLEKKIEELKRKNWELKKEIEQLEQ

Assay [42] deals with T42, P1bH1.
T42 chain: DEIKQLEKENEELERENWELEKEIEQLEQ

The target of assay [43] is T43, P11bH1.
T43 chain: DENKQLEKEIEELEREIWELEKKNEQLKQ

For assay [44], the target named is T44, 4H2586-bA.
T44 chain: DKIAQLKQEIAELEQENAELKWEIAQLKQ

Assay [45] concerns the target T45, 4H968-bA.
T45 chain: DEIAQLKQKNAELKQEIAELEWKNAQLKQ

In assay [46] the target is T46, 4H3112-bA.
T46 chain: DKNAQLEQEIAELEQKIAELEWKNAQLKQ

The target of assay [47] is T47, 4H797-bA.
T47 chain: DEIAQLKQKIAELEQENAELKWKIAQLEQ

The target of assay [48] is T48, 4H346-bA.
T48 chain: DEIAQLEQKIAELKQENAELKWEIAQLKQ

For assay [49], the target named is T49, 4H754-bA.
T49 chain: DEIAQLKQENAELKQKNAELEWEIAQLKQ

The target of assay [50] is T50, 4H1158-bA.
T50 chain: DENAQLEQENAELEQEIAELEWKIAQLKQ

Assay [51] concerns the target T51, 4H2673-bA.
T51 chain: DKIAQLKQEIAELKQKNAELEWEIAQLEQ

In assay [52] the target is T52, 4H118-bA.
T52 chain: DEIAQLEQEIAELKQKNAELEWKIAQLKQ

Assay [53] concerns the target T53, 4H3010-bA.
T53 chain: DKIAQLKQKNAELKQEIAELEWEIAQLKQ

In assay [54] the target is T54, 4H1831-bA.
T54 chain: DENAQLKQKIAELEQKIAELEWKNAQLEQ

For assay [55], the target named is T55, 4H2702-bA.
T55 chain: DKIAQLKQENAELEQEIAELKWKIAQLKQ

Assay [56] concerns the target T56, 4H575-bA.
T56 chain: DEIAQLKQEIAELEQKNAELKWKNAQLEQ

For assay [57], the target named is T57, 4H2627-bA.
T57 chain: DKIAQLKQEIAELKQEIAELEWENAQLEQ

For assay [58], the target named is T58, 4H683-bA.
T58 chain: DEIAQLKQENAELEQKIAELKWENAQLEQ

In assay [59] the target is T59, 4H3427-bA.
T59 chain: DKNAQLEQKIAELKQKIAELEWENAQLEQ

The target of assay [60] is T60, 4H457-bA.
T60 chain: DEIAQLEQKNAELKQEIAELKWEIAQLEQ

The target in assay [61] is T61, 4H112-bA.
T61 chain: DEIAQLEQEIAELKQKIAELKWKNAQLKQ

For assay [62], the target named is T62, 4H918-bA.
T62 chain: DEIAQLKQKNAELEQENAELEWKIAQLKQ

The target of assay [63] is T63, O8-bH.
T63 chain: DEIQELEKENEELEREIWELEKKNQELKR

The target in assay [64] is T64, 4H780-bA.
T64 chain: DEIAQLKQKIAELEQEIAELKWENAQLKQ

Assay [65] concerns the target T65, 4H953-bA.
T65 chain: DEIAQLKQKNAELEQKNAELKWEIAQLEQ

Assay [66] concerns the target T66, 4H3926-bA.
T66 chain: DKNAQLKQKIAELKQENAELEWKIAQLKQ

For assay [67], the target named is T67, 4H170-bA.
T67 chain: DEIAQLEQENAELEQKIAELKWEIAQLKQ

The target of assay [68] is T68, 4H4073-bA.
T68 chain: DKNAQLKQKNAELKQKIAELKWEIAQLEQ

Assay [69] deals with T69, 4H855-bA.
T69 chain: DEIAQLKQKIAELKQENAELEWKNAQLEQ

Take DENQQLEQENQELEQKIQELKWEIQELEQ [4H1193-bN]: the interaction score is -1.42 in [1]; -2.15 in [2]; -0.365 in [3]; -0.76 in [4]; -0.667 in assay [5]; -0.683 in assay [6]. Moreover, the interaction score in [7] is 1.11; in assay [8] it was -0.409; in [9], -0.197; in assay [10] it was -0.788; in [11] it was 1.89; in [12], -1.23. Besides, the interaction score is -0.991 in assay [13]; -0.457 in assay [14]; -0.718 in assay [15]; -0.916 in assay [16]; -2.2 in assay [17]; -1.2 in assay [18]. Besides, the interaction score in assay [19] is -0.785; in assay [20], -2.07; in assay [21], -0.982; in [22] it was 1.24; in assay [23] it was -0.563; in [24], -1.06. Moreover, the interaction score in assay [25] was -0.628; in assay [26] it was -0.958; in assay [27], -0.604; in assay [28], -0.463; in assay [29], -1.1; in assay [30], -1.79. The figures for the interaction score in assay [31] and in assay [32] were -0.688 and -2.18, respectively.

Regarding DENKQLEKEIEELEREIWELEKKNEQLKQ [P11bH1], the interaction score is 1.12 in [33]; 0.239 in assay [34]; -0.507 in assay [35]; 0.0252 in [36]; 1.25 in assay [37]; -0.076 in assay [38]. In addition, the interaction score in [39] is 0.725; in [40], -0.0263; in [41], 1.1; in assay [42], -2.02; in assay [43] it was 0.

With DEIAQLEQEIAELKQKIAELKWKNAQLKQ [4H112-bA], the interaction score in assay [44] is -0.329; in [45], 0.422; in assay [46], 1.9; in assay [47], 0.104; in assay [48], -0.491; in [49] it was -0.627. In addition, the interaction score in assay [50] is 0.722; in [51], 1.17; in [52] it was -1.17; in assay [53], 1.69; in [54] it was -0.538; in assay [55], 0.586. The interaction score in assay [56] was -0.781; in assay [57] it was 1.89; in assay [58], 0.303; in assay [59] it was 1.34; in [60] it was 1.18; in assay [25], 1.94. Further, the interaction score in assay [61] was 2.02; in assay [62] it was -1.12; in assay [63], -2.98; in [64], -0.588; in assay [65] it was 0.0535; in assay [66], 0.327. The interaction score is 0.905 in assay [67], 1.5 in assay [68] and 0.496 in [69].
